The target of test [1] is T1, extracellular domain of human EphA2 (25-534) (Homo sapiens, UniProt P29317).
T1 construct: extracellular domain of human EphA2 (25-534) with a C-terminal HIS tag; purchased R&D Systems 3035-A2
The test is described as follows: Epitope binning by bio-layer interferometry (Octet, in-tandem). Type of test: binding. As for the experimental part: Epitope binning was performed using an Octet Red 96E instrument (Sartorius) using the in-tandem format. In this format, antigen is captured on a biosensor tip, a first antibody (or other binding partner) is bound to saturation, and subsequently the ability of a second antibody (or binding partner) known to recognize the antigen is assessed. If substantial binding by the second species is no longer observed, it is supportive that simultaneous binding is sterically hindered (i.e., the second species is “blocked” by pre-saturation of the 1st) and that the two may bind overlapping epitopes. If, however, substantial binding of the second species is observed, despite saturation of the first, it is supportive that the two bind non-overlapping epitopes. Groups of antibodies that block one another can be considered to populate the same epitope bin.
The fourth antibody Fv region (AB-008873) was discovered via Atreca's Immune Repertoire Capture (IRC™). Antibodies were produced with mouse IgG2a constant regions. The natural ligand tested was EphrinA1 fused to Fc (Acro, EF1-H5251). Antigen immobilized on the biosensor was the extracellular domain of human EphA2 (25-534) with a C-terminal HIS tag (R&D Systems, 3035-A2) and captured using Ni-NTA tips (Sartorius, 18-5102). Protein solutions were made in 1× Kinetics buffer (Satorius, 18-1092) supplemented with 2.5 mM Imidazole to reduce non-specific binding. Each pairwise interaction was assessed in both orders of addition, and controls for binding in the absence of antigen or with antigen but without a first binding species included. Binning indicated the five molecules populated only two Bins. The first bin contains molecules AB-008873 and AB-010018 and was interpreted to represent epitopes on the membrane proximal fibronectin domain of EphA2 based on the reported epitope location of DS-8895a (Hasegawa, J. et al., Novel anti-EPHA2 antibody, DS-8895a for cancer treatment. Cancer Biology and Therapy, 17(11), 1158-1167 (2016)). The second bin contains molecules AB-010017. AB-010016, and EphrinA1-Fc and was interpreted to represent epitopes on the ligand binding domain (Peng, L. et al., Structural and functional characterization of an agonistic anti-human EphA2 monoclonal antibody. Journal of Molecular Biology, 413(2), 390-405 (2011); Geddie, M. L. et al., Improving the developability of an anti-EphA2 single-chain variable fragment for nanoparticle targeting. MAbs, 9(1), 58-67 (2017)). FIG. 5, Tables 41-42. Referring to FIG. 5, the FN2 location in the first bin is inferred from domain deletion data reported in Hasegawa et al., 2016, FIG. 1, noting that the reported MMP cleavage sites are (385/395/432/435).
A general note: BLI is a label-free optical method that tracks binding on a fibre tip over time.

In a further test the test system is A549 cells. The test can be described thus: ADCC (KILR target cells, NK92 CD16 chimera effector cells). The conditions noted are these: A549 tumor cells; for ADCC - dAct rel. parent, Trial 1: Trial 1, relative to parent antibody; for ADCC - dAct rel. parent, Trial 2: Trial 2, relative to parent antibody. It is filed as cell-based, human. As for the experimental part:
To detect Antibody-dependent cellular cytotoxicity (ADCC), KILR™-transfected target cells were opsonized with different concentrations of the antibody at room temperature for 20 minutes. Following, NK92 cells carrying a mouse extracellular-human intracellular CD16 chimera were added at a 5:1 ratio of effector to target cells. After a 4 h co-culture at 37° C. and 5% CO2, pre-mixed KILR™ detection reagent was added to each well at equal volume and allowed to incubate for 30 min at room temperature in the dark before reading luminescence on a pate reader. Cytotoxicity was calculated after background (spontaneous release) subtraction and expressed as percent of a maximum lysis control.

Numbering of substitutions follows the chain as printed.

T1 sequence (P29317 25-534): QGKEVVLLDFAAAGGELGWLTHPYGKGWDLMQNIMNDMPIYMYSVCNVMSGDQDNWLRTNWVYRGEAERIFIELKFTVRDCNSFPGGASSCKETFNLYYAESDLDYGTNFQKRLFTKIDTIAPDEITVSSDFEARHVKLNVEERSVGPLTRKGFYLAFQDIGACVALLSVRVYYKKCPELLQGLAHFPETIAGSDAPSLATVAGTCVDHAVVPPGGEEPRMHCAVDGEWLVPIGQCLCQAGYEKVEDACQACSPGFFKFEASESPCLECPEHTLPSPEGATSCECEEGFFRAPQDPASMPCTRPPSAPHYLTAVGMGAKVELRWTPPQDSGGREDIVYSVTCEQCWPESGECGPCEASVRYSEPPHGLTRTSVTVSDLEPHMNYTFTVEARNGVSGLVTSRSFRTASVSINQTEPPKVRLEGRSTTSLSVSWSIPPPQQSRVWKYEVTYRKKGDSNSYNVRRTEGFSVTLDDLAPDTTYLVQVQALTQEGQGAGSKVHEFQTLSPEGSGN

B1: EphrinA1-Fc: natural ligand EphrinA1 fused to Fc (Acro, EF1-H5251) (protein)
chain: DRHTVFWNSSNPKFRNEDYTIHVQLNDYVDIICPHYEDHSVADAAMEQYILYLVEHEEYQLCQPQSKDQVRWQCNRPSAKHGPEKLSEKFQRFTPFTLGKEFKEGHSYYYISKPIHQHEDRCLRLKVTVSGKITHSPQAHDNPQEKRLAADDPEVRVLHSIGHS
modifications: left off: a dimerising Fc or GST
As to B1, the epitope bin entry in test [1] (first bin: membrane proximal fibronectin domain, second bin: ligand binding domain) is listed as “second bin”.

B2: Ephrin-A1 (protein)
chain: B1 chain
modifications: left off: a dimerising Fc or GST
For B2, in test [1] (label = Analyte 1, Analyte 2 8873-02, NiNTA tip, Ligand R&D ECD-06), the “Octet in tandem binning, Notes/Scoring” value is “Binding observed”. Besides, the “Octet in tandem binning (blocked / binds)” value in test [1] (paired with 8873-2 (column; Bin #1 - FN2)) is listed as “binds”; in test [1] (paired with 10016-01 (Bin #2 - LBD)) it was “blocked”; in test [1] (paired with 10017-01 (Bin #2 - LBD)), “blocked”; in test [1] (paired with 10018-01 (column; Bin #1 - FN2)), “binds”; in test [1] (paired with Ephrin-A1 (Bin #2 - LBD)), “blocked”.

B3: AB-010681: VH SEQ ID NO: 634, VL SEQ ID NO: 699; L29SY; L92SH relative to AB-010361 (antibody, V domains shown)
VH: QVQLQQWGAGLLKPSETLSLTCAVYGGSFSGYYWSWIRQPPGKGLEWIGEINHRGSINYNNYNPSLKSRVTISVDTSKNQFSLKLSSVTAADTAVYYCAKPLRPHCTNGVCYSGDAFDIWGQGTMVTVAS
VL: SYVLTQPPSVSVAPGQTARITCGGNNIGYKNVHWYQQKPGQAPVLVVYDDSDRPSGIPEQFSGSNSGNTATLTISRVEAGDEADYYCQVWDHSSDHVVFGGGTKLTVL
Turning to B3, in the test with A549 cells, the half-maximal effective concentration (EC50) (as a rule, the concentration needed to bring the measured effect to its halfway point) was around 8 pM; the “ADCC - dAct rel. parent, Trial 1” value turned out to be 152.1%; the “ADCC - dAct rel. parent, Trial 2” value came to 104.6%.

B4: AB-010670: VH SEQ ID NO: 623, VL SEQ ID NO: 688; H107TI; L92SH relative to AB-010357 (antibody, V domains shown)
VH: B3 VH with G31D, T107I
VL: B3 VL with Y29S
B4: the “ADCC - dAct rel. parent, Trial 1” value in the test with A549 cells stood at 178.2%.

B5: AB-010664: VH SEQ ID NO: 617, VL SEQ ID NO: 682; L23GR; L92SH relative to AB-010357 (antibody, V domains shown)
VH: B3 VH with G31D
VL: B3 VL with G23R, Y29S
In the case of B5, the “ADCC - dAct rel. parent, Trial 1” value in the test with A549 cells worked out at 167.7%.

B6: AB-010688: VH SEQ ID NO: 641, VL SEQ ID NO: 706; L29SY; L93SE relative to AB-010361 (antibody, V domains shown)
VH: B3 VH
VL: B3 VL with H92S, S93E
With B6, in the test on A549 cells, the “ADCC - dAct rel. parent, Trial 1” value was 129.9% and the “ADCC - dAct rel. parent, Trial 2” value came out at 108.0%.

B7: AB-010669: VH SEQ ID NO: 622, VL SEQ ID NO: 687; L30KM; L92SH relative to AB-010357 (antibody, V domains shown)
VH: B3 VH with G31D
VL: B3 VL with Y29S, K30M
As to B7, the “ADCC - dAct rel. parent, Trial 1” value with A549 cells is given as 177.7%.

B8: AB-010673: VH SEQ ID NO: 626, VL SEQ ID NO: 691; L93SE relative to AB-010357 (antibody, V domains shown)
VH: B3 VH with G31D
VL: B3 VL with Y29S, H92S, S93E
For the molecule B8, the “ADCC - dAct rel. parent, Trial 1” value in the test on A549 cells worked out at 166.4%.

B9: AB-010667: VH SEQ ID NO: 620, VL SEQ ID NO: 685; L29SY; L92SH relative to AB-010357 (antibody, V domains shown)
VH: B3 VH with G31D
VL: B3 VL
For the molecule B9, in the test with A549 cells, the “ADCC - dAct rel. parent, Trial 1” value came to 154.8% and the “ADCC - dAct rel. parent, Trial 2” value amounted to 108.9%.

B10: AB-010678: VH SEQ ID NO: 631, VL SEQ ID NO: 696; L23GR; L92SH relative to AB-010361 (antibody, V domains shown)
VH: B3 VH
VL: B3 VL with G23R, Y29S
For B10, in the test on A549 cells, the “ADCC - dAct rel. parent, Trial 1” value came out at 154.2% and the “ADCC - dAct rel. parent, Trial 2” value is on record as 93.9%.

B11: AB-010686: VH SEQ ID NO: 639, VL SEQ ID NO: 704; L93SR relative to AB-010361 (antibody, V domains shown)
VH: B3 VH
VL: B3 VL with Y29S, H92S, S93R
Turning to B11, in the test with A549 cells, the “ADCC - dAct rel. parent, Trial 1” value is 132.3%.

B12: AB-010674: VH SEQ ID NO: 627, VL SEQ ID NO: 692; L29SY; L93SE relative to AB-010357 (antibody, V domains shown)
VH: B3 VH with G31D
VL: B3 VL with H92S, S93E
In the case of B12, in the test on A549 cells, the “ADCC - dAct rel. parent, Trial 1” value amounted to 171.2% and the “ADCC - dAct rel. parent, Trial 2” value was found to be 97.2%.

B13: AB-010683: VH SEQ ID NO: 636, VL SEQ ID NO: 701; L30KM; L92SH relative to AB-010361 (antibody, V domains shown)
VH: B3 VH
VL: B3 VL with Y29S, K30M
In the case of B13, in the test on A549 cells, the “ADCC - dAct rel. parent, Trial 1” value came to 174.8% and the “ADCC - dAct rel. parent, Trial 2” value is 100.0%.

B14: AB-010672: VH SEQ ID NO: 625, VL SEQ ID NO: 690; L93SR relative to AB-010357 (antibody, V domains shown)
VH: B3 VH with G31D
VL: B3 VL with Y29S, H92S, S93R
As to B14, the “ADCC - dAct rel. parent, Trial 1” value in the test with A549 cells is recorded as 162.9%.

B15: AB-010687: VH SEQ ID NO: 640, VL SEQ ID NO: 705; L93SE relative to AB-010361 (antibody, V domains shown)
VH: B3 VH
VL: B3 VL with Y29S, H92S, S93E
Take B15: in the test on A549 cells, the “ADCC - dAct rel. parent, Trial 1” value was determined as 166.8%.

B16: AB-010684: VH SEQ ID NO: 637, VL SEQ ID NO: 702; H107TI; L92SH relative to AB-010361 (antibody, V domains shown)
VH: B3 VH with T107I
VL: B3 VL with Y29S
With B16, in the test on A549 cells, the “ADCC - dAct rel. parent, Trial 1” value is listed as 166.6% and the “ADCC - dAct rel. parent, Trial 2” value turned out to be 115.4%.
